{
  "source": "patent US12134788B2",
  "about": "“Engineered prephenate dehydrogenases and arogenate dehydrogenases and methods of using the same” (Wisconsin Alumni Research Foundation, priority 2017, dated 2024)",
  "origin": "cited, not measured here",
  "molecules": {"B1": {"name": "AaPDH: prephenate dehydrogenase from Aquifex aeolicus, PDB 3GGG (protein)", "chain": "MQNVLIVGVGFMGGSFAKSLRRSGFKGKIYGYDINPESISKAVDLGIIDEGTTSIAKVEDFSPDFVMLSSPVRTFREIAKKLSYILSEDATVTDQGSVKGKLVYDLENILGKRFVGGHPIAGTEKSGVEYSLDNLYEGKKVILTPTKKTDKKRLKLVKRVWEDVGGVVEYMSPELHDYVFGVVSHLPHAVAFALVDTLIHMSTPEVDLFKYPGGGFKDFTRIAKSDPIMWRDIFLENKENVMKAIEGFEKSLNHLKELIVREAEEELVEYLKEVKIKRMEI", "modifications": "A. aeolicus; misc_feature (1)..(281): A.aeolicus AaPDH", "notes": "prephenate dehydrogenase from Aquifex aeolicus, PDB 3GGG"}},
  "details": "arogenate versus prephenate, from references 29, 34; cited from earlier work",
  "data": [
    {"molecule": "B1", "values": [
      {"measurement": "substrate specificity (in words)", "value": "prefers prephenate"}
    ]}
  ]
}
